Experimental findings from PMC12446779, “Structural basis of transglucosylation in dextran dextrinase, a homolog of anomer-inverting GH15 glucoside hydrolases” (The Journal of Biological Chemistry, 2025) are described below.

Residue numbers refer to the chain shown, from its start. Names and notes keep the numbering of the source.

Substrate in the series: OC[C@H]1O[C@H](F)[C@H](O)[C@@H](O)[C@@H]1O
In words: fluoride release, colorimetric (Alfusone), Michaelis-Menten fit. The format is biochemical, Gluconobacter oxydans. Conditions: 130 mM sodium acetate pH 4.2, 35 °C, 0.2 mg/ml BSA. The text has this: fluoride release, colorimetric (Alfusone), Michaelis-Menten fit on Δ382C (DDase-Δ382C)

B1: Δ382C (DDase-Δ382C) (Gluconobacter oxydans) (protein)
chain: MADNSDEQFVASDYTLLGDATDDPNGMVDMPAGQEPATTNAVPSGVEYNFLAATAGYYTVSFAYQNTANAAAYEQLSINGQNEPGVVEFDQTSGASTGTAYASVYLKAGLNSVELNNQTTDETNGLTPVPEDQLQASPAFQIGTSTVAAGASPSQETSAQSLAISNQTDMQAFVQGESMAPKQQWTFGPSLSELHVGSNDELNQLDFNAVWFRNVTPGQQAETYSPYFKSNESFDANGVLHVNYGAYSPTGQALPVQIQATYANVPNENLIVENLSLTNQNASGTQPLVWDVMNATGINPGEVSSTTWDPTHNAWIVTEDQGSGKSPLYLAIGDYQVSNSTHAAGVDGVNVRGSYSLSSGASGNPSLNAPDQGVIGGFENNGTMVGSSSGASGTNLAVGTTDSDVTLNPGQTVDLSYYLSTATSLSQLDANLDKYTNTVGSTTSSTPMTDATGASAASSWTQQTATAWDDTLNQAYNLAGSTETSGQAATAASGQTLDPTSSAAAQSAYRSSLINILQAQSPEYGSFMASTNPSYEYKVWVRDSAATAIGLDDAGLTQPADKFWRWMASVEQNGMNATYSGNASGTFSTNYGEFDQNLPIGFVAPENDSQGLFLIGSYRHYEQMLSEGQTQQAQSFISDPTVRQALVNSANWIQENIGSNGLGPADYSIWEDMYGYHTFTQVTYAEGLNAASQLASAMGEGNQAQTWATGAETIKDAILRPTTASTPGLWNAQEGHFVEMINPNGTIDNTIDADTNIAAVFGLVSPTSIYATENAQAVENALTQDNFGLSRYQNETFYQSSQWSPGGTYEAQGISPSWPQMTAYDSIVSMDSGNTTQANNDLSWIEQSYDNGGTPPGESYDWARGQPIESTSSEPVTASWYVQDLLNSTGQTSTLMPAITGQ
notes: C-terminal truncation Met1-Ser902 (domains N1, N2, HLH, A); N-terminal His6 tag (…) kept; E. coli BL21-CodonPlus(DE3)-RIL; 921 residues with tag; dimer 195,604 Da
By Km is commonly meant the substrate concentration at which the rate is half of its maximum. The kcat is the maximal rate divided by the concentration of active sites. As usually defined, the kcat/Km is the turnover number divided by the Michaelis constant. In the case of B1, the Km was determined as 40 ± 4 mM, the kcat came out at 15 ± 1 s⁻¹ and the kcat/Km is 380 M⁻¹ s⁻¹.

B2: Δ382C (DDase-Δ382C) (Gluconobacter oxydans; E671Q) (protein)
chain: B1 chain with E671Q
notes: as for B1
Consider B2, for which the Km is reported as 1.5 ± 0.1 mM, the kcat was 0.025 ± 0.002 s⁻¹ and the kcat/Km stood at 17 M⁻¹ s⁻¹.
